Measured values published in article PMC10786891, “Massively parallel profiling of RNA-targeting CRISPR-Cas13d”.

T1: EsCas13d, nuclease-dead (Eubacterium siraeum, UniProt B0MS50, R295A;H300A;R849A;H854A)
T1 sequence: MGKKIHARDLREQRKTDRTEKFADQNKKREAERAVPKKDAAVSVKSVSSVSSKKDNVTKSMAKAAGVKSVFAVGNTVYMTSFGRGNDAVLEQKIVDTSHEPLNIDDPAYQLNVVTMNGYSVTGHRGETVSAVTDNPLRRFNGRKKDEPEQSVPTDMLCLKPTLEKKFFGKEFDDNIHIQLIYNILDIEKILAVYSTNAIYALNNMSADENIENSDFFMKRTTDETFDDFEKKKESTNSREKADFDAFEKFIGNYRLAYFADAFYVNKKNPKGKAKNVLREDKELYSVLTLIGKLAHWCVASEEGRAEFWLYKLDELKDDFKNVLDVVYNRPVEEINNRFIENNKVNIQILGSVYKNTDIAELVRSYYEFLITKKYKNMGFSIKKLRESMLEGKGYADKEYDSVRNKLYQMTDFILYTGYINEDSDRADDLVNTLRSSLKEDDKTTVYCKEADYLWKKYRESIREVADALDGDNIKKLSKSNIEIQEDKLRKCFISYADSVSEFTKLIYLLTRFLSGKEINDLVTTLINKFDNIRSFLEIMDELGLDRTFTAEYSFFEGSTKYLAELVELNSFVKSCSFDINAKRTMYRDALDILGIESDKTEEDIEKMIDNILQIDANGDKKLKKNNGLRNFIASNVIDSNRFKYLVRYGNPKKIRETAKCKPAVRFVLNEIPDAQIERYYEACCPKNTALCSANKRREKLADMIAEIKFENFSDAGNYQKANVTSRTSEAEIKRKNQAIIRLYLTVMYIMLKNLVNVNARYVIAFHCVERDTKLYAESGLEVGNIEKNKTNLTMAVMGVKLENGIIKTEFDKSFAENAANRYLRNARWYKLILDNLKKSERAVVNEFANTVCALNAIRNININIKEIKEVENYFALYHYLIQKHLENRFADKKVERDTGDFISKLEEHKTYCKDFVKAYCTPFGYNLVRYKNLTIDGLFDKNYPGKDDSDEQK


Molecular target: T1, EsCas13d, nuclease-dead
Test: crRNA (strand 1, pre-loaded); Mg2+; 40 mM Tris-HCl pH 7.5, 150 mM NaCl, 6 mM MgCl2, 1 mM DTT, 0.1% Tween-20, 0.2 mg/ml BSA; 25 C; 10 min per concentration, then washed
Conditions: tags: His6-TwinStrep-SUMO cleaved; N-terminal SNAP kept (SNAP-Surface 488); label: 3' end held by stalled T7 RNA polymerase

| Binder | Kd [nM] |
| --- | --- |
| target 1 insG 3' of 10,insC 3' of 5 (mixed) RNA 1: CACCCGUGCAAAAAUGCAGGGGUCUAAAACUGAGCGGAUAACCUCUCUAUGG RNA 2: GGGAAUGGAUCCACAUCUACGAAUUCGUACCAUAGAGAGGUUGAUCCGCCUCACCGAGAUCGGAAGAGCACACGU | 46 ± 8 |
| target 1 insG 3' of 20,insC 3' of 9 (mixed) RNA 1: CACCCGUGCAAAAAUGCAGGGGUCUAAAACUGAGCGGAUAACCUCUCUAUGG RNA 2: GGGAAUGGAUCCACAUCUACGAAUUCGUACCAGUAGAGAGGUUACUCCGCUCACCGAGAUCGGAAGAGCACACGU | ~45 |
| target 1 insG 3' of 9,insG 3' of 3 (mixed) RNA 1: CACCCGUGCAAAAAUGCAGGGGUCUAAAACUGAGCGGAUAACCUCUCUAUGG RNA 2: GGGAAUGGAUCCACAUCUACGAAUUCGUACCAUAGAGAGGUUAGUCCGCUGCACCGAGAUCGGAAGAGCACACGU | 10.3 ± 0.5 |
| target 1 C2U,U8C (mixed) RNA 1: CACCCGUGCAAAAAUGCAGGGGUCUAAAACUGAGCGGAUAACCUCUCUAUGG RNA 2: GGGAAUGGAUCCACAUCUACGAAUUCGUACCAUAGAGAGGUUACCCGCUUACCGAGAUCGGAAGAGCACACGU | 10.1 ± 0.8 |
| target 1 insC 3' of 19,insG 3' of 18 (mixed) RNA 1: CACCCGUGCAAAAAUGCAGGGGUCUAAAACUGAGCGGAUAACCUCUCUAUGG RNA 2: GGGAAUGGAUCCACAUCUACGAAUUCGUACCAUCAGGAGAGGUUAUCCGCUCACCGAGAUCGGAAGAGCACACGU | 89 ± 19 |
| target 1 complement block 8-12 (mixed) RNA 1: CACCCGUGCAAAAAUGCAGGGGUCUAAAACUGAGCGGAUAACCUCUCUAUGG RNA 2: GGGAAUGGAUCCACAUCUACGAAUUCGUACCAUAGAGAGCAAUACCGCUCACCGAGAUCGGAAGAGCACACGU | 12.7 ± 0.8 |
| target 1 insG 3' of 9,insU 3' of 6 (mixed) RNA 1: CACCCGUGCAAAAAUGCAGGGGUCUAAAACUGAGCGGAUAACCUCUCUAUGG RNA 2: GGGAAUGGAUCCACAUCUACGAAUUCGUACCAUAGAGAGGUUAGUCCUGCUCACCGAGAUCGGAAGAGCACACGU | 20.3 ± 1.2 |
| target 1 insU 3' of 7,insG 3' of 7 (mixed) RNA 1: CACCCGUGCAAAAAUGCAGGGGUCUAAAACUGAGCGGAUAACCUCUCUAUGG RNA 2: GGGAAUGGAUCCACAUCUACGAAUUCGUACCAUAGAGAGGUUAUCUGCGCUCACCGAGAUCGGAAGAGCACACGU | 9.1 ± 0.6 |
| target 1 G5A,U10A (mixed) RNA 1: CACCCGUGCAAAAAUGCAGGGGUCUAAAACUGAGCGGAUAACCUCUCUAUGG RNA 2: GGGAAUGGAUCCACAUCUACGAAUUCGUACCAUAGAGAGGUAAUCCACUCACCGAGAUCGGAAGAGCACACGU | 84 ± 16 |
| target 1 insG 3' of 20,insC 3' of 19 (mixed) RNA 1: CACCCGUGCAAAAAUGCAGGGGUCUAAAACUGAGCGGAUAACCUCUCUAUGG RNA 2: GGGAAUGGAUCCACAUCUACGAAUUCGUACCAGUCAGAGAGGUUAUCCGCUCACCGAGAUCGGAAGAGCACACGU | 59 ± 10 |
| target 1 insG 3' of 14,insG 3' of 14 (mixed) RNA 1: CACCCGUGCAAAAAUGCAGGGGUCUAAAACUGAGCGGAUAACCUCUCUAUGG RNA 2: GGGAAUGGAUCCACAUCUACGAAUUCGUACCAUAGAGAGGGGUUAUCCGCUCACCGAGAUCGGAAGAGCACACGU | 7.7 ± 0.6 |
| target 1 A9C,C22A (mixed) RNA 1: CACCCGUGCAAAAAUGCAGGGGUCUAAAACUGAGCGGAUAACCUCUCUAUGG RNA 2: GGGAAUGGAUCCACAUCUACGAAUUCGUAACAUAGAGAGGUUCUCCGCUCACCGAGAUCGGAAGAGCACACGU | 47 ± 9 |
| target 1 insC 3' of 14,insA 3' of 13 (mixed) RNA 1: CACCCGUGCAAAAAUGCAGGGGUCUAAAACUGAGCGGAUAACCUCUCUAUGG RNA 2: GGGAAUGGAUCCACAUCUACGAAUUCGUACCAUAGAGACGAGUUAUCCGCUCACCGAGAUCGGAAGAGCACACGU | 28 ± 7 |
| target 1 C2U,U11C (mixed) RNA 1: CACCCGUGCAAAAAUGCAGGGGUCUAAAACUGAGCGGAUAACCUCUCUAUGG RNA 2: GGGAAUGGAUCCACAUCUACGAAUUCGUACCAUAGAGAGGCUAUCCGCUUACCGAGAUCGGAAGAGCACACGU | 9.5 ± 0.4 |
| target 1 insC 3' of 19,insC 3' of 3 (mixed) RNA 1: CACCCGUGCAAAAAUGCAGGGGUCUAAAACUGAGCGGAUAACCUCUCUAUGG RNA 2: GGGAAUGGAUCCACAUCUACGAAUUCGUACCAUCAGAGAGGUUAUCCGCUCCACCGAGAUCGGAAGAGCACACGU | 30 ± 4 |
| target 1 insU 3' of 20,insU 3' of 12 (mixed) RNA 1: CACCCGUGCAAAAAUGCAGGGGUCUAAAACUGAGCGGAUAACCUCUCUAUGG RNA 2: GGGAAUGGAUCCACAUCUACGAAUUCGUACCAUUAGAGAGGUUUAUCCGCUCACCGAGAUCGGAAGAGCACACGU | 11.5 ± 0.7 |
| target 1 insU 3' of 15,insA 3' of 3 (mixed) RNA 1: CACCCGUGCAAAAAUGCAGGGGUCUAAAACUGAGCGGAUAACCUCUCUAUGG RNA 2: GGGAAUGGAUCCACAUCUACGAAUUCGUACCAUAGAGUAGGUUAUCCGCUACACCGAGAUCGGAAGAGCACACGU | 8.9 ± 0.6 |
| target 1 insU 3' of 5,insG 3' of 4 (mixed) RNA 1: CACCCGUGCAAAAAUGCAGGGGUCUAAAACUGAGCGGAUAACCUCUCUAUGG RNA 2: GGGAAUGGAUCCACAUCUACGAAUUCGUACCAUAGAGAGGUUAUCCGUCGUCACCGAGAUCGGAAGAGCACACGU | 12.7 ± 0.9 |
| target 1 del7,del14 (mixed) RNA 1: CACCCGUGCAAAAAUGCAGGGGUCUAAAACUGAGCGGAUAACCUCUCUAUGG RNA 2: GGGAAUGGAUCCACAUCUACGAAUUCGUACCAUAGAGGGUUAUCGCUCACCGAGAUCGGAAGAGCACACGU | 18 ± 0.6 |
| target 1 insU 3' of 5,insU 3' of 1 (mixed) RNA 1: CACCCGUGCAAAAAUGCAGGGGUCUAAAACUGAGCGGAUAACCUCUCUAUGG RNA 2: GGGAAUGGAUCCACAUCUACGAAUUCGUACCAUAGAGAGGUUAUCCGUCUCAUCCGAGAUCGGAAGAGCACACGU | 13.5 ± 0.6 |
| target 1 insA 3' of 15,insA 3' of 12 (mixed) RNA 1: CACCCGUGCAAAAAUGCAGGGGUCUAAAACUGAGCGGAUAACCUCUCUAUGG RNA 2: GGGAAUGGAUCCACAUCUACGAAUUCGUACCAUAGAGAAGGAUUAUCCGCUCACCGAGAUCGGAAGAGCACACGU | 42 ± 5 |
| target 1 insC 3' of 20,insU 3' of 5 (mixed) RNA 1: CACCCGUGCAAAAAUGCAGGGGUCUAAAACUGAGCGGAUAACCUCUCUAUGG RNA 2: GGGAAUGGAUCCACAUCUACGAAUUCGUACCACUAGAGAGGUUAUCCGUCUCACCGAGAUCGGAAGAGCACACGU | 8.6 ± 0.9 |
| target 1 A1G,U11C (mixed) RNA 1: CACCCGUGCAAAAAUGCAGGGGUCUAAAACUGAGCGGAUAACCUCUCUAUGG RNA 2: GGGAAUGGAUCCACAUCUACGAAUUCGUACCAUAGAGAGGCUAUCCGCUCGCCGAGAUCGGAAGAGCACACGU | 8.4 ± 0.5 |
| target 1 del4 (mixed) RNA 1: CACCCGUGCAAAAAUGCAGGGGUCUAAAACUGAGCGGAUAACCUCUCUAUGG RNA 2: GGGAAUGGAUCCACAUCUACGAAUUCGUACCAUAGAGAGGUUAUCCGUCACCGAGAUCGGAAGAGCACACGU | 34 ± 7 |
| target 1 U10A,G12A (mixed) RNA 1: CACCCGUGCAAAAAUGCAGGGGUCUAAAACUGAGCGGAUAACCUCUCUAUGG RNA 2: GGGAAUGGAUCCACAUCUACGAAUUCGUACCAUAGAGAGAUAAUCCGCUCACCGAGAUCGGAAGAGCACACGU | 5.86 ± 0.25 |
| target 1 insU 3' of 5,insA 3' of 3 (mixed) RNA 1: CACCCGUGCAAAAAUGCAGGGGUCUAAAACUGAGCGGAUAACCUCUCUAUGG RNA 2: GGGAAUGGAUCCACAUCUACGAAUUCGUACCAUAGAGAGGUUAUCCGUCUACACCGAGAUCGGAAGAGCACACGU | 19.9 ± 1.7 |
| target 1 insA 3' of 11,insA 3' of 8 (mixed) RNA 1: CACCCGUGCAAAAAUGCAGGGGUCUAAAACUGAGCGGAUAACCUCUCUAUGG RNA 2: GGGAAUGGAUCCACAUCUACGAAUUCGUACCAUAGAGAGGUAUAUACCGCUCACCGAGAUCGGAAGAGCACACGU | 39.7 ± 3.3 |
| target 1 insC 3' of 16,insC 3' of 15 (mixed) RNA 1: CACCCGUGCAAAAAUGCAGGGGUCUAAAACUGAGCGGAUAACCUCUCUAUGG RNA 2: GGGAAUGGAUCCACAUCUACGAAUUCGUACCAUAGACGCAGGUUAUCCGCUCACCGAGAUCGGAAGAGCACACGU | 84 ± 27 |
